Measured values published in US20210253718A1, “FRIZZLED5 PROTEIN-BINDING AGENTS” (Modmab Therapeutics Corporation, priority 2016, published 2021).

Columns and labels:
FZD1 CRD = target: T1, FZD1 CRD (Homo sapiens, UniProt Q9UP38); assay: Immunofluorescence of anti-FZD5 Fab binding to CHO cells overexpressing Frizzled CRD; set-up: key: −: no binding; +: very weak binder; ++: weak binder; +++: good binder; ++++: very good binder
T1 construct: D112-P238; GPI anchor signal (C); expressed in transfected cells; host or cells: CHO cells, lentiviral pLenti-puro
Method in brief: (§1)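 CHO panel, 10 lines, each w/ one human FZD CRD-myc-GPI (lentiviral). Anti-FZD5 Fabs applied; surface binding scored by IF, cross-checked by FACS.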

FZD3 CRD = target: T2, FZD3 CRD (Homo sapiens, UniProt Q9NPG1); assay: as above; set-up: key: −: no binding; +: very weak binder; ++: weak binder; +++: good binder; ++++: very good binder
T2 construct: CRD of FZD1, FZD2, FZD3, FZD4, FZD5, FZD6, FZD7, FZD8, FZD9 or FZD10; GPI anchor signal (C); expressed in transfected cells; host or cells: CHO cells, lentiviral pLenti-puro
T2 sequence (Q9NPG1 23-136 limits assumed): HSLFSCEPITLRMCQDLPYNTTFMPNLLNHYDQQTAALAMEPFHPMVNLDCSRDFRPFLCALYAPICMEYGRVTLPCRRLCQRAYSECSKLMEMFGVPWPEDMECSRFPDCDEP
Method in brief: as §1

FZD4 CRD = target: T3, FZD4 CRD (Homo sapiens, UniProt Q9ULV1); assay: as above; set-up: key: −: no binding; +: very weak binder; ++: weak binder; +++: good binder; ++++: very good binder
T3 construct: E42-V167; GPI anchor signal (C); expressed in transfected cells; host or cells: CHO cells, lentiviral pLenti-puro
T3 sequence (Q9ULV1 42-167): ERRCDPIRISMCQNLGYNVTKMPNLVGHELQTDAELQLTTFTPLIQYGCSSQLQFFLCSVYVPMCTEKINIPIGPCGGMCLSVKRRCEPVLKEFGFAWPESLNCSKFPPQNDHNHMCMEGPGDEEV
Method in brief: as §1

FZD5 CRD = target: T4, FZD5 CRD (Homo sapiens, UniProt Q13467); assay: as above; set-up: key: −: no binding; +: very weak binder; ++: weak binder; +++: good binder; ++++: very good binder
T4 construct: K29-T156; GPI anchor signal (C); expressed in transfected cells; host or cells: CHO cells, lentiviral pLenti-puro
T4 sequence (Q13467 29-156): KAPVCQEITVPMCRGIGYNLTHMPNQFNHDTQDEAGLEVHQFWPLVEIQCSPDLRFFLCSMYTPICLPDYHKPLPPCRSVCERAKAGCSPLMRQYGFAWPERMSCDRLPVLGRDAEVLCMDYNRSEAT
Method in brief: as §1

FZD6 CRD = target: T5, FZD6 CRD (Homo sapiens, UniProt O60353); assay: as above; set-up: key: −: no binding; +: very weak binder; ++: weak binder; +++: good binder; ++++: very good binder
T5 construct: S20-P146; GPI anchor signal (C); expressed in transfected cells; host or cells: CHO cells, lentiviral pLenti-puro
T5 sequence (O60353 20-146): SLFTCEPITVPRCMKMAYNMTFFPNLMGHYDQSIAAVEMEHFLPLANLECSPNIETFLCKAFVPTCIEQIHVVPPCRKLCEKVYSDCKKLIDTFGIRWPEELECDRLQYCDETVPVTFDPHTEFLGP
Method in brief: as §1

ASPC-1 cells [1] = assay: Effect of anti-FZD5 Fabs on proliferation of pancreatic cancer cell lines (percent growth inhibition); type: cell-based, human; conditions: Fab 10 μg/ml
Experimental: (§2) The effect of presently disclosed anti-FZD5 Fabs on proliferation of RNF43 loss-of-function mutant pancreatic cancer cell lines HPAFII, PATU8988S and ASPC-1; and on pancreatic cancer cell line RWP1, was tested at […] and 10 μg/ml.

HPAFII cells = assay: as above; type: cell-based, human; conditions: for percent growth inhibition, HPAFII 2 μg/ml: Fab 2 μg/ml; for percent growth inhibition, HPAFII 10 μg/ml: Fab 10 μg/ml
Experimental: as §2

PATU8988S cells = assay: as above; type: cell-based, human; conditions: Fab 10 μg/ml
Experimental: as §2

RWP1 cells [2] = assay: as above; type: cell-based, human; conditions: Fab 10 μg/ml
Experimental: as §2

ASPC-1 cells [3] = assay: as above; type: cell-based, human; conditions: Fab 2 μg/ml
RWP1 cells [4] = assay: as above; type: cell-based, human; conditions: Fab 2 μg/ml

| Molecule | Immunofluorescence binding, Frizzled CRD overexpressed on CHO cells: FZD1 (FZD1 CRD) | Immunofluorescence binding, Frizzled CRD overexpressed on CHO cells: FZD3 (FZD3 CRD) | Immunofluorescence binding, Frizzled CRD overexpressed on CHO cells: FZD4 (FZD4 CRD) | Immunofluorescence binding, Frizzled CRD overexpressed on CHO cells: FZD5 (FZD5 CRD) | Immunofluorescence binding, Frizzled CRD overexpressed on CHO cells: FZD6 (FZD6 CRD) | percent growth inhibition, ASPC-1 10 μg/ml (ASPC-1 cells [1]) | percent growth inhibition, HPAFII 2 μg/ml (HPAFII cells) | percent growth inhibition, HPAFII 10 μg/ml (HPAFII cells) | percent growth inhibition, PATU8988s 10 μg/ml (PATU8988S cells) | percent growth inhibition, RWP1 10 μg/ml (RWP1 cells [2]) | percent growth inhibition, ASPC-1 2 μg/ml (ASPC-1 cells [3]) | percent growth inhibition, RWP1 2 μg/ml (RWP1 cells [4]) |
| --- | --- | --- | --- | --- | --- | --- | --- | --- | --- | --- | --- | --- |
| Fab-2922: anti-FZD5 Fab with antibody variable region Fv-2922; CDR SEQ ID NOs: 35, 36, 61, 99, 137, 171 (antibody, V domains shown) VH: EVQLVESGGGLVQPGGSLRLSCAASGFNIYSSYMHWVRQAPGKGLEWVASISPYSGYTSYADSVKGRFTISADTSKNTAYLQMNSLRAEDTAVYYCARTVRGSKKPYFSGWAMDYWGQGTLVTVSS VL: DIQMTQSPSSLSASVGDRVTITCRASQSVSSAVAWYQQKPGKAPKLLIYSASSLYSGVPSRFSGSRSGTDFTLTISSLQPEDFATYYCQQSFVYPYLITFGQGTKVEIK | − | − | − | ++++ | − | 27.72% | 8.28% | 8.14% | −24.14% | 7.59% | 14.47% | −6.96% |
| Fab-2920: anti-FZD5 Fab with antibody variable region Fv-2920; CDR SEQ ID NOs: 35, 36, 59, 98, 135, 170 (antibody, V domains shown) VH: EVQLVESGGGLVQPGGSLRLSCAASGFNISYYYIHWVRQAPGKGLEWVASIYPSSGSTSYADSVKGRFTISADTSKNTAYLQMNSLRAEDTAVYYCARGGMDYWGQGTLVTVSS VL: DIQMTQSPSSLSASVGDRVTITCRASQSVSSAVAWYQQKPGKAPKLLIYSASSLYSGVPSRFSGSRSGTDFTLTISSLQPEDFATYYCQQWFAGALITFGQGTKVEIK | − | − | − | ++++ | − | 40.69% | 29.48% | 32.93% | −5.60% | −3.09% | 33.66% | −16.26% |
| Fab-2921: anti-FZD5 Fab with antibody variable region Fv-2921; CDR SEQ ID NOs: 35, 36, 60, 98, 136, 162 (antibody, V domains shown) VH: EVQLVESGGGLVQPGGSLRLSCAASGFNISYYYIHWVRQAPGKGLEWVASIYPSSGSTSYADSVKGRFTISADTSKNTAYLQMNSLRAEDTAVYYCARGAMDYWGQGTLVTVSS VL: DIQMTQSPSSLSASVGDRVTITCRASQSVSSAVAWYQQKPGKAPKLLIYSASSLYSGVPSRFSGSRSGTDFTLTISSLQPEDFATYYCQQWYAGSLITFGQGTKVEIK | − | − | − | ++++ | − | 47.95% | 30.70% | 44.23% | −16.29% | −0.10% | 43.20% | −4.47% |
